Assay [1] addresses PI4KB phosphorylated at Ser496 (E. coli produced, PKA treated) (human) (UniProt Q9UBF8). Nature of the assay: HDX-MS.
The target in assay [2] is PI4KB (isoform 2, E. coli produced, non-phosphorylated) (human) (UniProt Q9UBF8). Nature of the assay: HDX-MS.

The text below walks through data of doi:10.1101/634592.

For orientation: Kd means the equilibrium constant for the complex coming apart. As for “c10orf76 (untagged, E. coli produced) (from UniProt Q5T2E6 1-689) (natural protein)”, the equilibrium dissociation constant (Kd) was determined as 85 nM in assay [1] and 30 nM in assay [2].
